Values quoted from earlier work, collected in publication PMC3433420.
Read-outs that look alike come from different tables or passages of the source.

Experiments:
Settings in all cases: cited from earlier work
SLA2 (Homo sapiens) = SLA2 (Homo sapiens) (UniProt Q9H6Q3)
SH3BP2 (Homo sapiens) = SH3BP2 (Homo sapiens) (UniProt P78314)
TNS4 (Homo sapiens) = TNS4 (Homo sapiens) (UniProt Q8IZW8)
PIK3R2-N (Homo sapiens) [1] = molecular target: PIK3R2-N (Homo sapiens) (UniProt O00459)
SHC3 (Homo sapiens) = SHC3 (Homo sapiens) (UniProt Q92529)
VAV1 (Homo sapiens) = VAV1 (Homo sapiens) (UniProt P15498)
ABL1 (Homo sapiens) = ABL1 (Homo sapiens) (UniProt P00519)
VAV3 (Homo sapiens) [2] = molecular target: VAV3 (Homo sapiens) (UniProt Q9UKW4)
PIK3R3-N (Homo sapiens) [3] = molecular target: PIK3R3-N (Homo sapiens) (UniProt Q92569)
PIK3R1-N (Homo sapiens) = PIK3R1-N (Homo sapiens) (UniProt P27986)
PTPN11-N (Homo sapiens) [4] = molecular target: PTPN11-N (Homo sapiens) (UniProt Q06124)
PIK3R3-N (Homo sapiens) [5] = molecular target: PIK3R3-N (Homo sapiens) (UniProt Q92569); remark: listed apart in the source
ABL2 (Homo sapiens) = ABL2 (Homo sapiens) (UniProt P42684)
SYK-NC (Homo sapiens) = SYK-NC (Homo sapiens) (UniProt P43405)
SH2B2 (Homo sapiens) = SH2B2 (Homo sapiens) (UniProt O14492)
ITK (Homo sapiens) = ITK (Homo sapiens) (UniProt Q08881)
CRK (Homo sapiens) = CRK (Homo sapiens) (UniProt P46108)
BLK (Homo sapiens) = BLK (Homo sapiens) (UniProt P51451)
TEC (Homo sapiens) [6] = molecular target: TEC (Homo sapiens) (UniProt P42680)
PIK3R2-N (Homo sapiens) [7] = molecular target: PIK3R2-N (Homo sapiens) (UniProt O00459); remark: listed apart in the source
RASA1-N (Homo sapiens) [8] = molecular target: RASA1-N (Homo sapiens) (UniProt P20936)
VAV3 (Homo sapiens) [9] = molecular target: VAV3 (Homo sapiens) (UniProt Q9UKW4); remark: listed apart in the source
RASA1-NC (Homo sapiens) = RASA1-NC (Homo sapiens) (UniProt P20936)
SHD (Homo sapiens) = SHD (Homo sapiens) (UniProt Q96IW2)
VAV2 (Homo sapiens) = VAV2 (Homo sapiens) (UniProt P52735)
RASA1-N (Homo sapiens) [10] = molecular target: RASA1-N (Homo sapiens) (UniProt P20936); remark: listed apart in the source
TEC (Homo sapiens) [11] = molecular target: TEC (Homo sapiens) (UniProt P42680); remark: listed apart in the source
YES1 (Homo sapiens) = YES1 (Homo sapiens) (UniProt P07947)
PTPN6-C (Homo sapiens) = PTPN6-C (Homo sapiens) (UniProt P29350)
PTPN11-N (Homo sapiens) [12] = molecular target: PTPN11-N (Homo sapiens) (UniProt Q06124); remark: listed apart in the source
GRB7 (Homo sapiens) = GRB7 (Homo sapiens) (UniProt Q14451)
GRB7 (Homo sapiens), sequence (Q14451 426-532): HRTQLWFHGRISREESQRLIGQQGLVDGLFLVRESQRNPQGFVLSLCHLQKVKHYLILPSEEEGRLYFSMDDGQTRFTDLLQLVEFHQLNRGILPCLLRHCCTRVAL

RASA1-N (Homo sapiens), sequence (P20936 176-446): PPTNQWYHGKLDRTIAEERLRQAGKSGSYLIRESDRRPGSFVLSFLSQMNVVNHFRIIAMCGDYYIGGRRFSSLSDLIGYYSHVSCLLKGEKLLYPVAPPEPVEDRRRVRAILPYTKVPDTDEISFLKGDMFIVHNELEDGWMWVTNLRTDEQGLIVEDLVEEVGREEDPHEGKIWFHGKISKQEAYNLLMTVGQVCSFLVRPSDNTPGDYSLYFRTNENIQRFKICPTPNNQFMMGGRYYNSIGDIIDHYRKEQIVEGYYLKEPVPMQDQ
PIK3R2-N (Homo sapiens), sequence (O00459 325-721): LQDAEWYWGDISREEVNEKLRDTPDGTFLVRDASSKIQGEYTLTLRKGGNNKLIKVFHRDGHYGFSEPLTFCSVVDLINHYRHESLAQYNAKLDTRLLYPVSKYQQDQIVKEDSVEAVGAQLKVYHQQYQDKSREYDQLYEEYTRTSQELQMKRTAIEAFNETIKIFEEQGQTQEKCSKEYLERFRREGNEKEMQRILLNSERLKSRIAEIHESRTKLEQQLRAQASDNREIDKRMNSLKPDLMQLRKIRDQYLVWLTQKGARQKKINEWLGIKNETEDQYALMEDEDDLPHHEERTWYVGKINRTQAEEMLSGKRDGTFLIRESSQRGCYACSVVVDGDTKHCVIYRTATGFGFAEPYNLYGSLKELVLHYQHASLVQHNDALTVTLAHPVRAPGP
VAV3 (Homo sapiens), sequence (Q9UKW4 667-771): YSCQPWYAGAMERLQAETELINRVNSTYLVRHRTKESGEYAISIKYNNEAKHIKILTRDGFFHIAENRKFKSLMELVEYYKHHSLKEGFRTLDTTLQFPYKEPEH
TEC (Homo sapiens), sequence (P42680 242-350): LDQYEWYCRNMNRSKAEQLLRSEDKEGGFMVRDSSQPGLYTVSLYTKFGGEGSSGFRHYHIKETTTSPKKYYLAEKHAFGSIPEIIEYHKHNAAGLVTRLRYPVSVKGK
SH3BP2 (Homo sapiens), sequence (P78314 452-560): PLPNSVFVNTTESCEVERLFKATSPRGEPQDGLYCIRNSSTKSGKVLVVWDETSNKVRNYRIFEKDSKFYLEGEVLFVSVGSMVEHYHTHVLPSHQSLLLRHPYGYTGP
SH2B2 (Homo sapiens), sequence (O14492 412-520): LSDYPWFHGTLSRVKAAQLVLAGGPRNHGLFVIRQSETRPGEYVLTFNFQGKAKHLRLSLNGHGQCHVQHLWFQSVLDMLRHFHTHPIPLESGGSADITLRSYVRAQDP
VAV2 (Homo sapiens), sequence (P52735 668-772): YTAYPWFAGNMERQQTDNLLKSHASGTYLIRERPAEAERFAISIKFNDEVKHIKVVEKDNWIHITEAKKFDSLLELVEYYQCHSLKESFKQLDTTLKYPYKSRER
SHD (Homo sapiens), sequence (Q96IW2 235-340): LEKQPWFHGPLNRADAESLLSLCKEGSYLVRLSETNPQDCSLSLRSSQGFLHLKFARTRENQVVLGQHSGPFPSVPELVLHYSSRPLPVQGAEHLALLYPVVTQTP
SHC3 (Homo sapiens), sequence (Q92529 494-594): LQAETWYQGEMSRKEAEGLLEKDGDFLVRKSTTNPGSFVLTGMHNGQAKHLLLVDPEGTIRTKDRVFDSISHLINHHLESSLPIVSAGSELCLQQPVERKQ
BLK (Homo sapiens), sequence (P51451 119-225): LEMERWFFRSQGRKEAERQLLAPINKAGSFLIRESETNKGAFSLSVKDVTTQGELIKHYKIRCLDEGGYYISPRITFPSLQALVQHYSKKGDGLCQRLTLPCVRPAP
TNS4 (Homo sapiens), sequence (Q8IZW8 444-561): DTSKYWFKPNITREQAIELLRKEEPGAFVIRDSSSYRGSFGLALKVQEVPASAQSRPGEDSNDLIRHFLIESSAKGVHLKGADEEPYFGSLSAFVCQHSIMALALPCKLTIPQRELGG
ABL1 (Homo sapiens), sequence (P00519 122-222): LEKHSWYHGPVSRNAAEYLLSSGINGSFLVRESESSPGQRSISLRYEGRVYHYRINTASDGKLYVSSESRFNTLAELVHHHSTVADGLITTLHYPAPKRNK
RASA1-NC (Homo sapiens), sequence (P20936 176-446): as the sequence (P20936 176-446) above
PTPN6-C (Homo sapiens), sequence (P29350 1-218): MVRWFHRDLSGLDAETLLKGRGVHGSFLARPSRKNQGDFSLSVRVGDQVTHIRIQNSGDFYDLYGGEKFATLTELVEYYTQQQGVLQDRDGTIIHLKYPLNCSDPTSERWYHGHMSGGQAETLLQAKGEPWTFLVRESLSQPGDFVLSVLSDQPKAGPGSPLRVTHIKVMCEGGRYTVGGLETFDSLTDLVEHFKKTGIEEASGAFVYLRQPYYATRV
PIK3R1-N (Homo sapiens), sequence (P27986 328-723): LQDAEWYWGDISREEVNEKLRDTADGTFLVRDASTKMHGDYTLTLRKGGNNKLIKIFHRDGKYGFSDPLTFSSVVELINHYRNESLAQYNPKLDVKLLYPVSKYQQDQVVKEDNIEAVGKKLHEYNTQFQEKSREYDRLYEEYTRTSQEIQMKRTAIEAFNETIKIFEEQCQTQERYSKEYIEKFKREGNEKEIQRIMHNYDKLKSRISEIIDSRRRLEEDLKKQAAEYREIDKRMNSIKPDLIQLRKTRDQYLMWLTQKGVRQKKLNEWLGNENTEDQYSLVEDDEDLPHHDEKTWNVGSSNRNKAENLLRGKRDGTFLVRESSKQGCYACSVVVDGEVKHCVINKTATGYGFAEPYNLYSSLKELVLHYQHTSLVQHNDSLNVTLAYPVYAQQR
VAV1 (Homo sapiens), sequence (P15498 666-770): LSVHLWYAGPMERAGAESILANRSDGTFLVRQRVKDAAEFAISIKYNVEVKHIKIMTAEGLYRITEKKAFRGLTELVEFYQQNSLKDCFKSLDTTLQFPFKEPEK
ABL2 (Homo sapiens), sequence (P42684 168-268): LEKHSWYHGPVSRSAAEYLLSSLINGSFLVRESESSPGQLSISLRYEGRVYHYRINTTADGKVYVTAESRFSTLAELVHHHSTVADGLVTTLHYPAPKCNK
SLA2 (Homo sapiens), sequence (Q9H6Q3 89-196): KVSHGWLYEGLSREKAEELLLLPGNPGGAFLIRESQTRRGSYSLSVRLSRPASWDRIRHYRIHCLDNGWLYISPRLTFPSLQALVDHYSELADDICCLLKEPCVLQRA
YES1 (Homo sapiens), sequence (P07947 153-260): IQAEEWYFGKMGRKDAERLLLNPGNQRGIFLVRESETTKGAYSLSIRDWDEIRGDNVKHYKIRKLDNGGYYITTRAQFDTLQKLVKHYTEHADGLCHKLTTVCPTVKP
ITK (Homo sapiens), sequence (Q08881 234-343): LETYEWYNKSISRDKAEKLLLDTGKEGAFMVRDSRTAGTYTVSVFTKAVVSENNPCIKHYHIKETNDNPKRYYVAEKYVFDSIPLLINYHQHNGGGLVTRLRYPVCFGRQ
CRK (Homo sapiens), sequence (P46108 8-123): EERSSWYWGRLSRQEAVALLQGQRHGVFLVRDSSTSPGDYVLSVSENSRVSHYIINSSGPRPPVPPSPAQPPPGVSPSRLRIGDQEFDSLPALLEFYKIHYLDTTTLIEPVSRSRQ

In the case of …pYEEMRAFQ, the apparent Kd (screen) (SLA2 (Homo sapiens)) is given as 2000 nM, the apparent Kd (screen) (SH3BP2 (Homo sapiens)) is given as 2000 nM and the apparent Kd (screen) (TNS4 (Homo sapiens)) is given as 1950 nM. The apparent Kd (screen) (PIK3R2-N (Homo sapiens) [1]) was 49 nM, the apparent Kd (screen) (SHC3 (Homo sapiens)) was 123 nM and the apparent Kd (screen) (VAV1 (Homo sapiens)) was 499 nM. For the same substance, the apparent Kd (screen) (ABL1 (Homo sapiens)) was 633 nM.

For …pYLIPQQGFd, the apparent Kd (screen) (VAV3 (Homo sapiens) [2]) is listed as 2000 nM, the apparent Kd (screen) (PIK3R3-N (Homo sapiens) [3]) is listed as 470 nM and the apparent Kd (screen) (PIK3R1-N (Homo sapiens)) is listed as 646 nM. The apparent Kd (screen) (PTPN11-N (Homo sapiens) [4]) was 379 nM, the apparent Kd (screen) (PIK3R3-N (Homo sapiens) [5]) was 722 nM and the apparent Kd (screen) (ABL2 (Homo sapiens)) was 282 nM. For the same substance, the apparent Kd (screen) (SYK-NC (Homo sapiens)) was 611 nM.

In the case of …pYLVPQQGF, the apparent Kd (screen) (SH2B2 (Homo sapiens)) is given as 2000 nM, the apparent Kd (screen) (ITK (Homo sapiens)) is given as 2000 nM and the apparent Kd (screen) (CRK (Homo sapiens)) is given as 2000 nM. For the same substance, the apparent Kd (screen) (BLK (Homo sapiens)) was 597 nM, the apparent Kd (screen) (TEC (Homo sapiens) [6]) was 2000 nM and the apparent Kd (screen) (PIK3R2-N (Homo sapiens) [7]) was 1950 nM. For the same substance, the apparent Kd (screen) (RASA1-N (Homo sapiens) [8]) was 2000 nM.

For …pYWDQDPPE, the apparent Kd (screen) (VAV3 (Homo sapiens) [9]) is listed as 1120 nM, the apparent Kd (screen) (RASA1-NC (Homo sapiens)) is listed as 224 nM and the apparent Kd (screen) (SHD (Homo sapiens)) is listed as 2000 nM. The apparent Kd (screen) (VAV2 (Homo sapiens)) was 2000 nM, the apparent Kd (screen) (RASA1-N (Homo sapiens) [10]) was 504 nM and the apparent Kd (screen) (TEC (Homo sapiens) [11]) was 1600 nM. For the same substance, the apparent Kd (screen) (YES1 (Homo sapiens)) was 219 nM, the apparent Kd (screen) (PTPN6-C (Homo sapiens)) was 2000 nM and the apparent Kd (screen) (PTPN11-N (Homo sapiens) [12]) was 2000 nM. For the same substance, the apparent Kd (screen) (GRB7 (Homo sapiens)) was 2000 nM.
